B3: SYCP1αN (domain or fragment, UniProt Q15431 101-362, looked up)
chain: GLSRVYSKLYKEAEKIKKWKVSTEAELRQKESKLQENRKIIEAQRKAIQELQFGNEKVSLKLEEGIQENKDLIKENNATRHLCNLLKETCARSAEKTKKYEYEREETRQVYMDLNNNIEKMITAFEELRVQAENSRLEMHFKLKEDYEKIQHLEQEYKKEINDKEKQVSLLLIQITEKENKMKDLTFLLEESRDKVNQLEEKTKLQSENLKQSIEKQHHLTKELEDIKVSLQRSVSTQKALEEDLQIATKTICQLTEEKETQ
notes: SYCP1 α-helical N-terminal region (αN), amino-acids 101-362; also called SYCP1's full α-helical N-terminal region (amino-acids 101-362); source: E. coli BL21(DE3), purified; alone or co-expressed with SYCE3
B5: SYCP1αNcore (domain or fragment, UniProt Q15431 206-362, looked up)
chain: ETRQVYMDLNNNIEKMITAFEELRVQAENSRLEMHFKLKEDYEKIQHLEQEYKKEINDKEKQVSLLLIQITEKENKMKDLTFLLEESRDKVNQLEEKTKLQSENLKQSIEKQHHLTKELEDIKVSLQRSVSTQKALEEDLQIATKTICQLTEEKETQ
notes: SYCP1 tetrameric core (αNcore), amino-acids 206-362; tetramer alone by SEC-MALS; two chains in the 2:1 complex with SYCE3; also called SYCP1 tetrameric core; SYCP1αNT; source: E. coli BL21(DE3), purified (amylose, TEV cleavage, anion exchange, SEC); alone or co-expressed with SYCE3; not shown: MBP, N-terminal, cleaved
B6: SYCP1 αCore-ΔNtip (domain or fragment, UniProt Q15431 112-783, looked up)
chain: EAEKIKKWKVSTEAELRQKESKLQENRKIIEAQRKAIQELQFGNEKVSLKLEEGIQENKDLIKENNATRHLCNLLKETCARSAEKTKKYEYEREETRQVYMDLNNNIEKMITAFEELRVQAENSRLEMHFKLKEDYEKIQHLEQEYKKEINDKEKQVSLLLIQITEKENKMKDLTFLLEESRDKVNQLEEKTKLQSENLKQSIEKQHHLTKELEDIKVSLQRSVSTQKALEEDLQIATKTICQLTEEKETQMEESNKARAAHSFVVTEFETTVCSLEELLRTEQQRLEKNEDQLKILTMELQKKSSELEEMTKLTNNKEVELEELKKVLGEKETLLYENKQFEKIAEELKGTEQELIGLLQAREKEVHDLEIQLTAITTSEQYYSKEVKDLKTELENEKLKNTELTSHCNKLSLENKELTQETSDMTLELKNQQEDINNNKKQEERMLKQIENLQETETQLRNELEYVREELKQKRDEVKCKLDKSEENCNNLRKQVENKNKYIEELQQENKALKKKGTAESKQLNVYEIKVNKLELELESAKQKFGEITDTYQKEIEDKKISEENLLEEVEKAKVIADEAVKLQKEIDKRCQHKIAEMVALMEKHKHQYDKIIEERDSELGLYKSKEQEQSSLRASLEIELSNLKAELLSVKKQLEIEREEKEKLKREAKE
notes: SYCP1 α-helical core without the αNtip, amino-acids 112-783; tetramer alone by SEC-MALS; also called SYCP1's full α-helical core, in which αNtips were deleted (amino-acids 112-783); source: E. coli BL21(DE3), purified; alone or in complex with SYCE3

Data set [1] addresses B5. The experiment in a line: ITC; SYCE3 (400 µM) injected into SYCP1αNcore (70 µM); 30°C; 25 mM Tris pH 8.0, 250 mM KCl, 2 mM DTT; apparent. As to conditions: both partners purified.
The target of data set [2] is T1, SYCE2-TEX12core, labelled (UniProt Q6PIF2 57-165; Q9BXU0 49-123, labelled with the Monolith NT Protein Labelling Kit RED (which chain is not told) | labelled with the Monolith NT Protein Labelling Kit RED (which chain is not told)).
T1 construct: SYCE2 structural core; TEX12 structural core; source: E. coli BL21(DE3), purified
T1 sequence (looked up) 1: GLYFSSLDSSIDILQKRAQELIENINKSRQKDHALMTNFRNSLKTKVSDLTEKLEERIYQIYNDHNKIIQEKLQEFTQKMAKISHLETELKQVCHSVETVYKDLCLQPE
T1 sequence (looked up) 2: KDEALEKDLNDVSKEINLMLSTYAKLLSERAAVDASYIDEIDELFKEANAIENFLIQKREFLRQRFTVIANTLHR
The experiment in a line: MST; SYCE3 titrated (1:1 dilutions) into 150 nM labelled SYCE2-TEX12core; Monolith NT.115, premium treated capillaries, excitation and MST power 40 %; apparent. As to conditions: both partners purified.

The target of another data set is T2, SYCP1αN V105E L109E (UniProt Q15431 101-362, V105E | L109E).
T2 construct: SYCP1αN, amino-acids 101-362, with V105E L109E; source: E. coli BL21(DE3), complex with SYCE3
T2 sequence (looked up): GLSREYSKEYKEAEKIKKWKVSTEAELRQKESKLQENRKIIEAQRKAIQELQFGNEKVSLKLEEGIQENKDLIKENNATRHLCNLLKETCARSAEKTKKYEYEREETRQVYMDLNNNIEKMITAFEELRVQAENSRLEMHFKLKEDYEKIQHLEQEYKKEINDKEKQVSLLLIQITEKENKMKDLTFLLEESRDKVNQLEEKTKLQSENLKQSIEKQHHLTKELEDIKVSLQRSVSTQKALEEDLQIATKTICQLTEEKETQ
The experiment in a line: SEC-MALS; purified proteins or co-expressed, purified complexes at 5-20 mg/ml; Superdex 200 Increase 10/300 GL, 20 mM Tris pH 8.0, 150 mM KCl, 2 mM DTT. As to conditions: both partners purified. On the technique in general: SEC sorts molecules by how far they enter the pores of the column.

Data set [3] concerns the molecule itself. Described as above.
The data set “SYCP1 αCore-ΔNtip” has as its target B6. Described as above. As to conditions: both partners purified.
The next data set deals with T3, SYCP1αN ΔNtip (UniProt Q15431 112-362).
T3 construct: SYCP1αN (101-362) with the αNtip (amino-acids 101-111) deleted; also called SYCP1 ΔNtip; source: E. coli BL21(DE3), co-expressed with SYCE3, complex purified
T3 sequence (looked up): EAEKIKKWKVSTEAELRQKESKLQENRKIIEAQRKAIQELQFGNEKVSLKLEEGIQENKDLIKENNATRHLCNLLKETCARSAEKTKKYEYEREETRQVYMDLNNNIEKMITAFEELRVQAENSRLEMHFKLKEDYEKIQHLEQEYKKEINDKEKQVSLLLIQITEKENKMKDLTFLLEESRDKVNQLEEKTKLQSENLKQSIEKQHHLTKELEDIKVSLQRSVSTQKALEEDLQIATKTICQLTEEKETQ
The data set is described as above. As to conditions: both partners purified.

The data set “SYCP1αN” deals with B3. The data set is described as above. As to conditions: both partners purified.
In data set [4] the target is B5. The data set is described as above. As to conditions: both partners purified.
The target of the next data set is T4, MBP-SYCP1αN (UniProt Q15431 101-362).
T4 construct: SYCP1αN, amino-acids 101-362; source: E. coli BL21(DE3), co-expressed with His-SYCE3, complex purified
T4 sequence (looked up): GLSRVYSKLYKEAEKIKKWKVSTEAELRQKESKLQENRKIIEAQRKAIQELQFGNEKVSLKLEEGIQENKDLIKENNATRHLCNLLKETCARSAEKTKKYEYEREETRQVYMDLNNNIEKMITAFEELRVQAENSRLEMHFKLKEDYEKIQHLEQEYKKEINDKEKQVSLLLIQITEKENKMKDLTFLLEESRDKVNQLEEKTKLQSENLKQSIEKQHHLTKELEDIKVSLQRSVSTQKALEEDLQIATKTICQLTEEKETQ
Nature of the data set: SEC-MALS; MBP-SYCP1αN-His-SYCE3 complex on a Superose 6 increase 10/300 GL column. As to conditions: both partners purified.

For a further data set, the target named is T5, MBP-SYCP1αNcore (UniProt Q15431 206-362).
T5 construct: SYCP1 tetrameric core (αNcore), amino-acids 206-362; also called MBP-SYCP1 (amino-acids 206-362); source: E. coli BL21(DE3), co-expressed with SYCE3 constructs; in lysate for the pull-down, co-purified (amylose, anion exchange, SEC); not shown: MBP, N-terminal, kept
T5 sequence (looked up): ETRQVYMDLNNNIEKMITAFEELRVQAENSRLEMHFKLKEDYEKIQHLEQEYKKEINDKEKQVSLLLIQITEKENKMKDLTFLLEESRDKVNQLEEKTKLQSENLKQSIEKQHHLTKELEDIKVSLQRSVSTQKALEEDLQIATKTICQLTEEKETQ
The experiment in a line: SEC-MALS; purified proteins or co-expressed, purified complexes at 5-20 mg/ml; Superdex 200 Increase 10/300 GL, 20 mM Tris pH 8.0, 150 mM KCl, 2 mM DTT. As to conditions: both partners purified.

Values joined by “and” are separate entries in the source; they are usually repeats but may differ in a detail not shown here. Identical values can stand only once.

B1: SYCE3 (natural protein, UniProt A1L190 1-88, looked up)
chain: MDDADPEERNYDNMLKMLSDLNKDLEKLLEEMEKISVQATWMAYDMVVMRTNPTLAESMRRLEDAFVNCKEEMEKNWQELLHETKQRL
notes: SYCE3, wild type; dimer alone by SEC-MALS; one chain in the 2:1 complex with SYCP1; also called SYCE3 wild-type; free SYCE3; source: alone or co-expressed with SYCP1 constructs; not shown: His, N-terminal, cleaved
Turning to B1, the values for the Kd (with SYCP1αNcore [1]; in data set [2]) were 0.17 µM and 21.8 µM, respectively. For the same molecule, the stoichiometry N (as a rule, the number of molecules, sites or subunits per partner or assembly) with SYCP1αN V105E L109E was 2 SYCP1 chains per SYCE3 chain; in data set [3] it was 2; with SYCP1 αCore-ΔNtip, 2 SYCP1 chains per SYCE3 chain; with SYCP1αN ΔNtip, 2 SYCP1 chains per SYCE3 chain; in the data set with SYCP1αN it was 2 SYCP1 chains per SYCE3 chain (2:1 species) and 2 SYCP1 chains per SYCE3 chain (4:2 species: 4 SYCP1, 2 SYCE3); with SYCP1αNcore [4], 2 SYCP1 chains per SYCE3 chain.

B2: His-SYCE3 (natural protein, UniProt A1L190 1-88, looked up)
chain: MDDADPEERNYDNMLKMLSDLNKDLEKLLEEMEKISVQATWMAYDMVVMRTNPTLAESMRRLEDAFVNCKEEMEKNWQELLHETKQRL
notes: SYCE3, wild type; SYCE3 1-88 (human) was cloned for the two-hybrid; also called SYCE3 wild-type (WT); source: E. coli BL21(DE3), co-expressed with MBP fusions; in lysate for pull-downs, co-purified (amylose, anion exchange, SEC); not shown: His, N-terminal, kept
As for B2, the “stoichiometry N” value is 2 SYCP1 chains per SYCE3 chain (2:1 species) and 2 SYCP1 chains per SYCE3 chain (4:2 species: 4 SYCP1, 2 SYCE3) with MBP-SYCP1αN; 2 SYCP1 chains per SYCE3 chain with MBP-SYCP1αNcore.

As to B3, the binding result in [3] is recorded as “binds”.

B4: SYCE3 12-88 (domain or fragment, UniProt A1L190 12-88, looked up)
chain: DNMLKMLSDLNKDLEKLLEEMEKISVQATWMAYDMVVMRTNPTLAESMRRLEDAFVNCKEEMEKNWQELLHETKQRL
notes: SYCE3 residues 12-88; source: E. coli BL21(DE3), co-expressed with SYCP1αNcore, complex purified
Regarding B4, in the data set with SYCP1αNcore [4], the “stoichiometry N” value was 2 SYCP1 chains per SYCE3 chain.

On to B5, for which the “stoichiometry N” value in data set [3] came out at 4.

B6: the “stoichiometry N” value in data set [3] turned out to be 4.

(Values after publication doi:10.1101/2022.03.06.483192, “Structural maturation of SYCP1-mediated meiotic chromosome synapsis through conformational remodelling by molecular adapter SYCE3” (bioRxiv, 2022).)
